Experimental data: the supplement of paper PMC10126150
± gives the standard deviation of the averaged measurements.

Each sequence was assayed on ATP (assay: switch fluorescence ratio, 500 uM ATP over buffer (Cy3 cluster intensity, sum of 5 cycles each) (fold (ratio)); higher = stronger signal-on switching upon ATP binding; sequences stand for … in TCGTCGGCAGCGTCAGATGTGTATAAGAGACAGTTTTTTTTTTTTTTTTTTTTTTTTT…TC). Settings: aptamer strand: ATP DNA aptamer (quencher-CACCTGGGGGAGTATTGCGGAGGAAGG + anchor), 100 nM annealed; ATP concentration: 500 uM.
Summary of the method: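 Exposure to 500 uM ATP lasted 15 min at 22 °C before imaging, and a selection-buffer image was taken beforehand, for Cy3-labelled switching-strand clusters on a modified Illumina MiSeq flow-cell annealed to 100 nM quencher-labelled ATP aptamer. Five buffer/ATP cycles were run with NaOH stripping and re-annealing between them. The fluorescence ratio per cluster is summed target-cycle over summed buffer-cycle Cy3 intensity, averaged per switch-domain sequence. Clusters outside 100-1000 RFU were excluded.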
AGAATGGGGA gave a switch fluorescence ratio of 1.02 ± 0.0092.
In the case of TTTTCATTTC, the switch fluorescence ratio is reported as 1.01 ± 0.012.
Sequence TTTGGAATAC has a switch fluorescence ratio of 2.92 ± 1.
ATTAAAAAAT was tested, and the switch fluorescence ratio was 0.98 ± 0.089.
In the case of CATGTTTGTG, the switch fluorescence ratio is reported as 0.982 ± 0.023.
ACGGCTTACT was tested, and the switch fluorescence ratio was 1.208 ± 0.0019.
With TCGAGTCCTA the switch fluorescence ratio was 0.9857 ± 0.0037.
CGGAAGTTCT gave a switch fluorescence ratio of 0.993 ± 0.049.
TCATAATTGA showed a switch fluorescence ratio of 0.99 ± 0.012.
Work on CCAGAGGGGG yielded a switch fluorescence ratio of 0.985 ± 0.067.
With TCGGGGTCGG the switch fluorescence ratio was 1.03 ± 0.016.
For GACGTATCAA, the switch fluorescence ratio was 1.04 ± 0.025.
AGGTCGGTCT gave a switch fluorescence ratio of 0.995 ± 0.058.
CGGCGTAGTC gave a switch fluorescence ratio of 1.02 ± 0.035.
For ATGGGTGGCT, the switch fluorescence ratio was 1.011 ± 0.007.
For GCAAACGTTA, the switch fluorescence ratio was 1.07 ± 0.043.
TATGAGGATC gave a switch fluorescence ratio of 1.01 ± 0.039.
TAATTTTCGT showed a switch fluorescence ratio of 1.02 ± 0.03.
In the case of TTGTAGATGC, the switch fluorescence ratio is reported as 1.03 ± 0.071.
For ACTGACTCA, the switch fluorescence ratio was 1.23 ± 0.048.
In the case of GGTCAAGCTG, the switch fluorescence ratio is reported as 1 ± 0.044.
GTGTAGATTA showed a switch fluorescence ratio of 1.02 ± 0.014.
In the case of GTGATCAGTG, the switch fluorescence ratio is reported as 0.98698 ± 0.00016.
With AGAAAGGTTG the switch fluorescence ratio was 0.984 ± 0.019.
In the case of TTACGGGTAG, the switch fluorescence ratio is reported as 1.02 ± 0.0088.
CAATCATGTC gave a switch fluorescence ratio of 1.04 ± 0.05.
GGGAGCCAGT gave a switch fluorescence ratio of 1.05 ± 0.12.
ACGGGGTGTA gave a switch fluorescence ratio of 0.986 ± 0.041.
AACAGAAATA gave a switch fluorescence ratio of 1.01 ± 0.021.
GGGCGTTTGA was tested, and the switch fluorescence ratio was 1 ± 0.046.
ATATTGTTGG was tested, and the switch fluorescence ratio was 0.972 ± 0.031.
CACTCTCAGC gave a switch fluorescence ratio of 1.04 ± 0.012.
TGATGAATGG showed a switch fluorescence ratio of 0.9899 ± 0.0092.
For CGGTTATCGC, the switch fluorescence ratio was 1.03 ± 0.052.
In the case of TAATTTAAAA, the switch fluorescence ratio is reported as 1.05 ± 0.12.
In the case of TTAATTTGAG, the switch fluorescence ratio is reported as 0.986 ± 0.03.
AGGAGCTCTT was tested, and the switch fluorescence ratio was 0.998 ± 0.0056.
Sequence AAATCCTTGT has a switch fluorescence ratio of 0.992 ± 0.039.
In the case of GTTTTTTGTA, the switch fluorescence ratio is reported as 0.994 ± 0.022.
Sequence TTTGGGGCGG has a switch fluorescence ratio of 0.989 ± 0.038.
Work on CATTTTTGAA yielded a switch fluorescence ratio of 1.006 ± 0.0066.
Sequence TGTGGCACAC has a switch fluorescence ratio of 1.01 ± 0.018.
Sequence CGTAGTGGGG has a switch fluorescence ratio of 0.993 ± 0.044.
GGGATTTTGT gave a switch fluorescence ratio of 0.983 ± 0.012.
For CAGGCATAAG, the switch fluorescence ratio was 0.9805 ± 0.0036.
Sequence GAAACTTGAC has a switch fluorescence ratio of 1.61 ± 0.039.
AATTCCGAGG showed a switch fluorescence ratio of 1.14 ± 0.021.
AATGTTGTGC gave a switch fluorescence ratio of 0.9381 ± 0.0049.
Work on TAGCAGACGG yielded a switch fluorescence ratio of 1.03 ± 0.015.
With TGCTGCTAGC the switch fluorescence ratio was 0.985 ± 0.036.
CTAAGAGGGA was tested, and the switch fluorescence ratio was 0.999 ± 0.025.
ATTTCTATCC gave a switch fluorescence ratio of 1.09 ± 0.12.
AGTCGGATGT showed a switch fluorescence ratio of 0.989 ± 0.023.
CCAACGGTCT showed a switch fluorescence ratio of 1.04 ± 0.0012.
TAGGCAGGGC showed a switch fluorescence ratio of 1.04 ± 0.11.
GAGTAGAGTG gave a switch fluorescence ratio of 0.957 ± 0.026.
Work on TTATAAAAAA yielded a switch fluorescence ratio of 1.07 ± 0.079.
In the case of TGGTTCGGGT, the switch fluorescence ratio is reported as 1.03 ± 0.036.
With TCGGGAGCCT the switch fluorescence ratio was 0.973 ± 0.015.
GATATAAAGA was tested, and the switch fluorescence ratio was 0.994 ± 0.046.
With AATTATGGGC the switch fluorescence ratio was 1.023 ± 0.0064.
CGGGTTCTAT was tested, and the switch fluorescence ratio was 0.977 ± 0.036.
Work on CTGGACCTTG yielded a switch fluorescence ratio of 0.977 ± 0.026.
With TAGGCTGGGC the switch fluorescence ratio was 0.9673 ± 0.0041.
With ATAGGGGCGG the switch fluorescence ratio was 0.978 ± 0.035.
Work on GGGCTTTAAG yielded a switch fluorescence ratio of 1.03 ± 0.04.
With GGGAAAAAGG the switch fluorescence ratio was 0.983 ± 0.029.
In the case of AGGTGTGTTG, the switch fluorescence ratio is reported as 0.984 ± 0.034.
Work on TTAAAGTGTT yielded a switch fluorescence ratio of 1.09 ± 0.16.
For TCGGGGTTGT, the switch fluorescence ratio was 1.01 ± 0.087.
In the case of AAGTTGGGG, the switch fluorescence ratio is reported as 0.99 ± 0.039.
With CGTTGTTTCT the switch fluorescence ratio was 0.967 ± 0.024.
Sequence GGGCATGATG has a switch fluorescence ratio of 1.02 ± 0.055.
For GTGTAGGGAT, the switch fluorescence ratio was 0.964 ± 0.015.
GTGCGGAGTG gave a switch fluorescence ratio of 0.97 ± 0.041.
TCGCGAAGGG gave a switch fluorescence ratio of 1.01 ± 0.013.
With TATGTGAGTT the switch fluorescence ratio was 1.001 ± 0.0099.
Sequence ATGATATCTA has a switch fluorescence ratio of 0.993 ± 0.022.
TTTGGAGGGT gave a switch fluorescence ratio of 1.02 ± 0.064.
In the case of ACCCGGCTCC, the switch fluorescence ratio is reported as 1.23 ± 0.045.
GTGCTGGGGG was tested, and the switch fluorescence ratio was 1.02 ± 0.02.
CATGGCACTT was tested, and the switch fluorescence ratio was 1.009 ± 0.0041.
Sequence GTTGGAATGT has a switch fluorescence ratio of 1.03 ± 0.018.
Sequence GATGTTAGGA has a switch fluorescence ratio of 0.978 ± 0.034.
GATTTCGTAT gave a switch fluorescence ratio of 0.98 ± 0.014.
TATTACTTGC showed a switch fluorescence ratio of 1.03 ± 0.042.
For GATTCTCAAG, the switch fluorescence ratio was 0.9746 ± 0.0056.
GCTGGGGATA gave a switch fluorescence ratio of 1.03 ± 0.032.
Sequence CCAATATTCG has a switch fluorescence ratio of 1.09 ± 0.056.
For ATTTTAATAT, the switch fluorescence ratio was 0.987 ± 0.03.
Sequence TATGAGATTT has a switch fluorescence ratio of 0.955 ± 0.026.
GTGCCCACGT gave a switch fluorescence ratio of 1 ± 0.039.
TTTGAGTGTA gave a switch fluorescence ratio of 0.969 ± 0.05.
ACAGTGTCTT was tested, and the switch fluorescence ratio was 1.01 ± 0.03.
With TTTTATTTGT the switch fluorescence ratio was 0.985 ± 0.0089.
In the case of AAGGGTTTGT, the switch fluorescence ratio is reported as 0.986 ± 0.017.
GGCCGTTCAT gave a switch fluorescence ratio of 0.972 ± 0.011.
In the case of TTAAAATCCT, the switch fluorescence ratio is reported as 1.12 ± 0.11.
TTTATTTGCC showed a switch fluorescence ratio of 1.05 ± 0.042.
GGGAGACGGT showed a switch fluorescence ratio of 1.02 ± 0.068.
TTATACGTAG was tested, and the switch fluorescence ratio was 1.03 ± 0.019.
AATTGTGGGC showed a switch fluorescence ratio of 0.978 ± 0.047.
For TTTACATGCG, the switch fluorescence ratio was 0.935 ± 0.031.
TTCTGAATTT was tested, and the switch fluorescence ratio was 0.999 ± 0.028.
TCCTGACGTA was tested, and the switch fluorescence ratio was 1.11 ± 0.022.
Sequence TAGTTGAGTG has a switch fluorescence ratio of 0.987 ± 0.037.
Sequence TTTCTTCGGG has a switch fluorescence ratio of 1 ± 0.019.
In the case of GGGGGAAAAG, the switch fluorescence ratio is reported as 1.03 ± 0.1.
TATATGAGAC gave a switch fluorescence ratio of 1.003 ± 0.0083.
TCCAGAACCC gave a switch fluorescence ratio of 1 ± 0.011.
CATTACAACA was tested, and the switch fluorescence ratio was 1.02 ± 0.059.
In the case of GGGGTAGCCC, the switch fluorescence ratio is reported as 0.9977 ± 0.004.
AGGGGTTGGT gave a switch fluorescence ratio of 0.983 ± 0.027.
Sequence GTCAGGGGGG has a switch fluorescence ratio of 1.02 ± 0.081.
Work on GTTAGTAGGA yielded a switch fluorescence ratio of 1.02 ± 0.019.
Work on GGGGGGGTGA yielded a switch fluorescence ratio of 1.01 ± 0.038.
With TTCAGAAGCG the switch fluorescence ratio was 1.01 ± 0.028.
Sequence GAATTGGATC has a switch fluorescence ratio of 1.02 ± 0.019.
GGTGTTTTAT gave a switch fluorescence ratio of 1.02 ± 0.015.
Work on ATGTGACTCT yielded a switch fluorescence ratio of 1.01 ± 0.043.
GCTACTCGAA gave a switch fluorescence ratio of 1.06 ± 0.02.
In the case of TGTGAGTTTA, the switch fluorescence ratio is reported as 0.978 ± 0.028.
For TGGGAGAAAA, the switch fluorescence ratio was 1.0069 ± 0.00087.
ATATTTGTTT was tested, and the switch fluorescence ratio was 0.993 ± 0.022.
GGGGGGGTAT was tested, and the switch fluorescence ratio was 1.01 ± 0.036.
TTCATGGGGC gave a switch fluorescence ratio of 1.05 ± 0.086.
With GGCTGTTTGG the switch fluorescence ratio was 1 ± 0.012.
For TTTAGGACGT, the switch fluorescence ratio was 0.999 ± 0.059.
Sequence TTAAGGCATG has a switch fluorescence ratio of 0.997 ± 0.018.
TTGTTTAGGG was tested, and the switch fluorescence ratio was 0.999 ± 0.049.
In the case of GTGGGAAAG, the switch fluorescence ratio is reported as 0.983 ± 0.016.
Sequence TTAGCTCTA has a switch fluorescence ratio of 1.012 ± 0.0054.
TTGAGATTGC gave a switch fluorescence ratio of 0.98 ± 0.027.
For GAAGAGATGT, the switch fluorescence ratio was 1.01 ± 0.021.
AGACGGGGTC showed a switch fluorescence ratio of 0.9848 ± 0.0021.
CATTGTGACT gave a switch fluorescence ratio of 1 ± 0.016.
With CTCTAAGGC the switch fluorescence ratio was 1.094 ± 0.0084.
In the case of GAAGGAGGTT, the switch fluorescence ratio is reported as 1 ± 0.012.
Work on CGGATTTAGA yielded a switch fluorescence ratio of 0.987 ± 0.043.
With CTGCGGGTTA the switch fluorescence ratio was 1.01 ± 0.015.
Work on CATTATTTGG yielded a switch fluorescence ratio of 1.003 ± 0.002.
Sequence TATATGATGA has a switch fluorescence ratio of 0.996 ± 0.015.
GGGTGTGTTT gave a switch fluorescence ratio of 0.985 ± 0.018.
Sequence AAAAAAGAAA has a switch fluorescence ratio of 0.982 ± 0.015.
CAAAGGGGGG showed a switch fluorescence ratio of 1.13 ± 0.38.
Sequence AATAGAGGAT has a switch fluorescence ratio of 0.971 ± 0.039.
TTGGAGGCGG gave a switch fluorescence ratio of 0.984 ± 0.066.
For GTTGCAGTGT, the switch fluorescence ratio was 1.02 ± 0.037.
Work on TTCAATATTT yielded a switch fluorescence ratio of 1 ± 0.024.
For ATAATGCAGG, the switch fluorescence ratio was 1 ± 0.032.
With AAGCTGTGCA the switch fluorescence ratio was 0.99 ± 0.038.
In the case of ATATTTCCTA, the switch fluorescence ratio is reported as 0.989 ± 0.033.
In the case of CTAGGTTTTG, the switch fluorescence ratio is reported as 0.995 ± 0.047.
